T1: human HMGB1 (human, UniProt P09429 2-215)
T1 construct: Expressed in FreeStyle 293 cells and purified; analyte in the Biacore assay of step (26-5); also called hHMGB1; recombinant human HMGB1
T1 sequence: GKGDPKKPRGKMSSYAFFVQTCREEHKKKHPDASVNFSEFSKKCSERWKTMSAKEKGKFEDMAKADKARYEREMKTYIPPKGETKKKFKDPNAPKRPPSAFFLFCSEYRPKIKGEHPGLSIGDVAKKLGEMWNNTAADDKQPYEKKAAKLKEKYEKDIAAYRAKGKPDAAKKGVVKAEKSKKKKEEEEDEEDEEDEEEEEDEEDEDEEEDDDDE

T2: biotinylated human HMGB1-Avi (human, UniProt P09429 2-215, biotin added at the C-terminal Avitag sequence by biotin ligase (BirA))
T2 construct: also called biotin-labeled hHMGB1; hHMGB1-Avitag
T2 sequence: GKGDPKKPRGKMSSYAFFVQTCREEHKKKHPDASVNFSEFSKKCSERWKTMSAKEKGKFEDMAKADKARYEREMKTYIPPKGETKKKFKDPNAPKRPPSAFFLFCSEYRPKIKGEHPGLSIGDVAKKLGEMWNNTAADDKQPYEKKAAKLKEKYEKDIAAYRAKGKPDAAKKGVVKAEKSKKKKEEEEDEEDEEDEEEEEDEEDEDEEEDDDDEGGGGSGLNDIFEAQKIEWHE


Assays:
GC-hIgA = biological target: T3, GC-hIgA (human); assay: SPR (Biacore A100), antibody from culture supernatant on a protein A chip, GC-hIgA as analyte, 25 C, 1.2 mM CaCl2, pH 7.4 (step 22-3)
T3 construct: Recombinant human IgA used as the antigen in the Biacore A100 screen of step (22-3); also called recombinant human IgA GC-hIgA; human IgA
T3 sequence (light, as listed by the source): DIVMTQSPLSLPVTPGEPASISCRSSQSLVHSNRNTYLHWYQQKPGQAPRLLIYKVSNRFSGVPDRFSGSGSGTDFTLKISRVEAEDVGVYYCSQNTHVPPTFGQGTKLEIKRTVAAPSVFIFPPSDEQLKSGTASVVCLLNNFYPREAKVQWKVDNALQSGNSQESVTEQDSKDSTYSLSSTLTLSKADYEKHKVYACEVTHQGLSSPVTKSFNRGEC
Protocol: The culture supernatant obtained by the above method was used to analyze GC-hIgA-binding ability using Biacore A100. Antibodies in the culture supernatant were immobilized onto Sensor chip CM5 (GE Healthcare Bio-Sciences Corp.) with protein A (Invitrogen Corp.) immobilized thereon in an appropriate amount by the amine coupling method. A buffer solution containing 20 mM ACES, 150 mM NaCl, 0.05% (w/v) Tween 20, and 1.2 mM CaCl₂) (pH 7.4) were used as a running buffer. GC-hIgA was also diluted with this buffer. Assay was all carried out at 25° C.

human HMGB1 = biological target: T1, human HMGB1; assay: SPR (Biacore T100), antibody captured via protein A/G on CM4, hHMGB1 as analyte, 25 C, 1.2 mM CaCl2, pH 7.4 against pH 5.8
Protocol: In order to judge the pH dependence of hHMGB1-binding activity of the antibodies HM_3_2_R_017 (heavy chain: SEQ ID NO: 131 and light chain: SEQ ID NO: 132), HM_3_2_R_054 (heavy chain: SEQ ID NO: 133 and light chain: SEQ ID NO: 134), and HM_4_1_R_001 (heavy chain: SEQ ID NO: 135 and light chain: SEQ ID NO: 136) obtained in the step (26-4), these antibodies were analyzed for their interaction with hHMGB1 using Biacore T100 (GE Healthcare Bio-Sciences Corp.). The interaction of antigen-antibody reaction was analyzed in solutions of pH 7.4 and pH 5.8 as neutral pH and acidic pH conditions, respectively. Approximately of 200 RU of each antibody of interest was captured onto Sensor chip CM4 (GE Healthcare Bio-Sciences Corp.) with protein A/G (Pierce Biotechnology Inc.) immobilized thereon in an appropriate amount by the amine coupling method. Two types of buffer solutions were used as running buffers: 20 mM ACES, 150 mM NaCl, 0.05% (w/v) Tween 20, and 1.2 mM CaCl₂) (pH 7.4); and 20 mM ACES, 150 mM NaCl, 0.05% (w/v) Tween 20, and 1.2 mM CaCl₂) (pH 5.8). hHMGB1 was also diluted with each of these buffers. Assay was all carried out at 25° C.
In the analysis on the interaction of antigen-antibody reaction using the HM_3_2_R_017 antibody, the HM_3_2_R_054 antibody, and the HM_4_1_R_001 antibody, the diluted hHMGB1 solution or a blank running buffer was injected at a flow rate of 10 μL/min for 60 seconds to […] onto the sensor chip. The HM_3_2_R_017 antibody, the HM_3_2_R_054 antibody, and the HM_4_1_R_001 antibody were interacted with hHMGB1. Then, 10 mM glycine-HCl (pH 1.5) was injected thereto at a flow rate of 30 μL/min for 30 seconds to regenerate the sensor chip.

[1] = biological target: T2, biotinylated human HMGB1-Avi; assay: phage ELISA (Fab displayed on phage) on biotin-labeled hHMGB1 on a StreptaWell plate, pH 7.6 against pH 5.5
Protocol: A phage-containing culture supernatant was collected by phage culture according to a conventional method (Methods Mol. Biol. (2002) 178, 133-145) from each single colony of the E. coli obtained after the third and fourth rounds of panning carried out in the step (26-2). After addition of BSA and CaCl₂) (final concentration: 4% BSA and 1.2 mM calcium ion), the phage-containing culture supernatant was subjected to ELISA by the following procedures: StreptaWell 96 microtiter plate (F. Hoffmann-La Roche Ltd.) was coated for 4 hours or longer with 100 μL of PBS containing biotin-labeled hHMGB1. Each well of the plate was washed with PBST to remove unbound antigens. Then, the well was blocked with 250 μL of 4% BSA-TBS (50 mM Tris, 300 mM NaCl, 2.5 mM CaCl₂), and 4% BSA) for 1 hour or longer. […] Each well was washed with 1.2 mM CaCl₂)/TBST (pH 7.6), and 1.2 mM CaCl₂)/TBS (pH 7.6) or 1.2 mM CaCl₂)/150 mM NaCl/50 mM MES (pH 5.5) was added thereto. The plate was left standing at 37° C. for 30 minutes for incubation. After washing with 1.2 mM CaCl₂)/TBST (pH 7.6), HRP-conjugated anti-M13 antibodies (Amersham Pharmacia Biotech Inc.) diluted with 4% BSA-TBS were added to each well. The plate was incubated for 1 hour. After washing with 1.2 mM CaCl₂)/TBST (pH 7.6), TMB single solution (Invitrogen Corp.) was added to the well. The chromogenic reaction of the solution in each well was terminated by the addition of sulfuric acid. Then, the developed color was assayed on the basis of absorbance at 450 nm.

[2] = biological target: T4, biotinylated human IgA-Fc (human, UniProt P01876 123-333, biotin added at the C-terminal Avitag sequence by biotin ligase (BirA)); assay: phage ELISA (Fab displayed on phage) on biotin-labeled IgA-Fc, 1.2 mM CaCl2 against 1 mM EDTA (step 22-4)
T4 construct: also called biotin-labeled hIgA-Fc
T4 sequence (P01876 other isoform, or with tags, fused parts or gaps limits assumed): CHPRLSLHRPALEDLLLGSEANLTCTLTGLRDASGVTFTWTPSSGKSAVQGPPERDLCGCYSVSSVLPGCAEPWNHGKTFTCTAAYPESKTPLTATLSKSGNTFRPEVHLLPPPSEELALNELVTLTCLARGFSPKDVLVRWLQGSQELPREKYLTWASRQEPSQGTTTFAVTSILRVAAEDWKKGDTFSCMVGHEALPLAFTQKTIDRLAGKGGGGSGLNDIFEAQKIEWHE
Protocol: Each well of the plate was washed with PBST to remove unbound antigens. […] The plate was left standing at 37° C. for 30 minutes for incubation. […] The plate was incubated for 1 hour. […] The chromogenic reaction of the solution in each well was terminated by the addition of sulfuric acid. Then, the developed color was assayed on the basis of absorbance at 450 nm.

[3] = biological target: T4, biotinylated human IgA-Fc; assay: phage ELISA (Fab displayed on phage) on biotin-labeled IgA-Fc, 1.2 mM CaCl2 against 1 mM EDTA (step 22-6)
[4] = biological target: T5, biotin-labeled recombinant human glypican 3 (human, UniProt P51654 25-563, biotin-labeled using EZ-Link NHS-PEG4-Biotin); assay: phage ELISA (Fab displayed on phage) on biotin-labeled GPC3, 1.2 mM CaCl2 against 1 mM EDTA
T5 construct: also called GPC3; biotin-labeled GPC3
T5 sequence (P51654 other isoform, or with tags, fused parts or gaps limits assumed): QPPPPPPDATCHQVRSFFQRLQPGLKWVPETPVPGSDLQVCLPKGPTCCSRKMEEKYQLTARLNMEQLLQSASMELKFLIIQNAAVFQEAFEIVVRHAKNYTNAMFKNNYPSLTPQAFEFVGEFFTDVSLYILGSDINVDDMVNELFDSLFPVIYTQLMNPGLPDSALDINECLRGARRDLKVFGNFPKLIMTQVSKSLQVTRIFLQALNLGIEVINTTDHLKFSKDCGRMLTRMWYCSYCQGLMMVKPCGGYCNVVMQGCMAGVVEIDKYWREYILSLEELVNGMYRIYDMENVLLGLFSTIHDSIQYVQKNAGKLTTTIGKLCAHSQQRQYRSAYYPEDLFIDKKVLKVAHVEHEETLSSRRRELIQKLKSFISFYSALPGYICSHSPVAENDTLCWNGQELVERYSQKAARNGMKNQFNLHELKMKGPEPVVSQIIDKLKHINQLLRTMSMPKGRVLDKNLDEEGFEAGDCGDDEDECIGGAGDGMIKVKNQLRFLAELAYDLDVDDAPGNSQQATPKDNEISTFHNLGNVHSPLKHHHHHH
Protocol: The plate was left standing at 37° C. for 30 minutes for incubation. […] The plate was incubated for 1 hour. […] The chromogenic reaction of the solution in each well was terminated by the addition of sulfuric acid. Then, the developed color was assayed on the basis of absorbance at 450 nm.

Row | binding result (human HMGB1) | binding result [1] | Binder | further results
1 | – | – | GA1-IgG1 (antibody, V domains shown, From the Ca library; obtained in step (22-3)) VH: EVQLVQSGAEVKKPGSSVKVSCKASGGTFSSYAISWVRQAPGQGLEWMGGIIPIFGTANYAQKFQGRVTITADESTSTAYMELSSLRSEDTAVYYCARVAPGNWGSPYFDYWGQGTLVTVSS VL: DIQMTQSPSSLSASVGDRVTITCRASQSIEDDLAWYQQKPGKAPKLLIYEASSLQSGVPSRFSGSGSGTDFTLTISSLQPEDFATYYCQQRDSSPLTFGQGTKVEIKR | binding result (GC-hIgA): binds
2 | binds | binds | HM_3_2_R_017 (antibody, human IgG1, kappa, V domains shown, From His library 1; also called HM_3_2_R_017 antibody) VH: QVQLQESGPGLVKPSETLSLTCSVSGGPISSSGYYWGWIRQPPGKGLEWIGTVYFNGDTYYNPSLKSRVTISVDTSKNQFSLKLNSVTAADTAVYYCAREEGYYYYYMDVWGKGTTVTVSS VL: DIQMTQSPSSLSASVGDRVTITCRASQSINSHLNWYQQKPGKAPKLLIYGASHLQSGVPSRFSGSGSGTDFTLTISSLQPEDFATYYCQQSHSYPLTFGQGTKVEIKR | –
3 | binds | binds | HM_4_1_R_001 (antibody, human IgG1, kappa, V domains shown, From His library 1; also called HM_4_1_R_001 antibody; HM_4_1R_001 antibody) VH: EVQLVESGGGLVQPGGSLRLSCAASGFTFSNYEMNWVRQAPGKGLEWISYISSSGRTFSYADSVKGRFTISRDNAKNSLYLQMNSLRAEDTAVYYCARDSGYSDGWYPSWFDSWGQGTLVTVSS VL: DIQMTQSPSSLSASVGDRVTITCRASQSINSHLAWYQQKPGKAPKLLIYHASNLQSGVPSRFSGSGSGTDFTLTISSLQPEDFATYYCQQHSSYPYTFGQGTKVEIKR | –
4 | – | – | GA2-IgG1 (antibody, V domains shown, From the Ca library; obtained in step (22-4)) VH: QVQLVQSGAEVKKPGSSVKVSCKASGGTFSSYAISWVRQAPGQGLEWMGGIIPIFGTANYAQKFQGRVTITADESTSTAYMELSSLRSEDTAVYYCARPRWETAISSDAFDIWGQGTMVTVSS VL: DIQMTQSPSSLSASVGDRVTITCRASQSISDDLNWYQQKPGKAPKLLIYEASNLQSGVPSRFSGSGSGTDFTLTISSLQPEDFATYYCQQHSSSPLTFGQGTKVEIKR | binding result [2]: binds
5 | – | – | GA3-IgG1 (antibody, V domains shown, From the Ca library; obtained in step (22-6)) VH: QVQLVQSGAEVKKPGSSVKVSCKASGGTFSSYAISWVRQAPGQGLEWMGGIIPIFGTANYAQKFQGRVTITADESTSTAYMELSSLRSEDTAVYYCARGNGDYLEYFQHWGQGTLVTVSS VL: DIQMTQSPSSLSASVGDRVTITCRASQSISDDLAWYQQKPGKAPKLLIYEASNLQSGVPSRFSGSGSGTDFTLTISSLQPEDFATYYCQQRDSSPLTFGQGTKVEIKR | binding result [3]: binds
6 | – | – | CSCM-01_023 (antibody, human IgG1, kappa, V domains shown, Purified IgG in the ELISA of step (24-5)) VH: QVQLVQSGAEVKKPGASVKVSCKASGYTFTSYGISWVRQAPGQGLEWMGWISAYNGNTNYAQKLQGRVTMTTDTSTSTAYMELRSLRSDDTAVYYCARDSPLLWFGEPFFDYWGQGTLVTVSS VL: DIQMTQSPSSLSASVGDRVTITCRASQSIEDDLAWYQQKPGKAPKLLIYHASTLQSGVPSRFSGSGSGTDFTLTISSLQPEDFATYYCQQSDSYPLTFGQGTKVEIKR | binding result [4]: binds
7 | binds | binds | HM_3_2_R_054 (antibody, human IgG1, kappa, V domains shown, From His library 1; also called HM_3_2_R_054 antibody) VH: QVQLVQSGAEVKKPGSSVKVSCKASGGTFSSYAISWVRQAPGQGLEWMGGIIPIFGTANYAQKFQGRVTITADESTSTAYMELSSLRSEDTAVYYCARDNRTLTYYDFWSGYSFWDAFDIWGQGTMVTVSS VL: DIQMTQSPSSLSASVGDRVTITCRASQSIHSHLAWYQQKPGKAPKLLIYGASHLQSGVPSRFSGSGSGTDFTLTISSLQPEDFATYYCQQRHSYPLTFGQGTKVEIKR | –

Reference: US20220187308A1 (published 2022)
